Measured values taken from patent US20190351049A1 (Regeneron, published 2019).
Like-named read-outs stand apart in the source and are kept apart here.

Key:
[1] = target: T1, MERS-CoV spike protein (EMC/2012), wt (MERS-CoV (isolate EMC/2012), UniProt K9N5Q8 18-1353); test: cell-based or functional assay
MERS-RBD-mFc = MERS-RBD-mFc (MERS-CoV (isolate EMC/2012), UniProt K9N5Q8 367-606); test: Octet BLI, MERS.mFc captured on the sensor, then mAb-1 applied
[2] = target: T1, MERS-CoV spike protein (EMC/2012), wt; test: cell-based or functional assay; remark: listed apart in the source
[3] = target: T1, MERS-CoV spike protein (EMC/2012), wt; test: cell-based or functional assay; remark: listed apart in the source

Binder	IC50 against MERSpp [1] [nM]	IC50 against live virus (EMC2012) [1] [nM]	mAb-1 Binding (nm) (MERS-RBD-mFc)	IC50 against MERSpp [2] [nM]	IC50 against live virus (EMC2012) [2] [nM]	% Neutralization (.025 µg/ml), MERSpp infectivity [3] [%]	Neutralization IC50 (M), MERSpp infectivity [3] [M]
H1H15237P2 (antibody, V domains shown) VH: EVQLVESGGGLVQPGGSLRLSCAASGFTSNSYPMSWVRQAPGKGLEWVSGISGRGGNTYYADSVKGRFTISRDNSKNTLYLQMNSLRVEDTAVYYCAETGTAFDYWGQGTLVTVSS VL: not shown	0.066	1.01	0.39				
H1H15188P (antibody, V domains shown) VH: QVQLVQSGAEVKKPGSSVKVSCKASGGSFSVYAISWVRQAPGQGLEWMGGIIPIFGTANYAQKFQDRFTITTDESTSTAYMELSSLRSEDTAMYYCAREGDIVVLPAGKGGMDVWGQGTTVTVSS VL: DIVMTQSPLSLPVTPGEPASISCRSSQSLLHGNGYNYLDWYLQKPGQSPQLLIYLVSHRASGVPDRFSGSGSGTDFTLKISRVEAEDVGVYYCMQALQSPWTFGQGTKVEIK	0.062	0.505	0.54				
H1H15203P (antibody, V domains shown) VH: EVQLVESGGDLVQPGGSLRVSCAASGFTFSNYDMYWVRQAPGKGLEWVSVISGIGATTYYADSVKGRFTISRDNSKNTVFLQMNSLRAEDTAVYYCVKGGPIVATDYWGQGTLVTVSS VL: not shown	0.0765	0.826	0.51				
H1H15177P (antibody, V domains shown) VH: EVQLVESGGGLVQPGGSLRLSCSASGFTFSSYDMSWVRQAPGKGLEWVSAIRGSGHTTYYADSVKGRFTISRDNSKNTLYLEMNSLRAEDTAVYYCVKDGSIVGFDPWGQGTLVTVSS VL: not shown	0.0457	0.629	0.6				
H1H15228P2 (antibody, V domains shown) VH: EVQLVESGGGLVQPGGSLRLSCAVFGFTFSGYAMSWVRQAPGKGLEWVSAISGGGGSTYYTDSVKGRFTISRDNSKNTLYLQMNSLRAEDTAVYYCASYWNNGMDVWGQGTTVTVSS VL: not shown	0.0975	0.898	0.52				
H1H15211P (antibody, V domains shown) VH: EVQLVESGGGLVQPGGSLRLSCVVSGFTFSNYDMSWVRQAPGRGLEWVSAIRGSGFNTYYADSVKGRFTISRDNSKNTLYLQMNSLRAEDTAVYYCAKDGSIVSMDYWGQGTLVTVSS VL: not shown	0.0474	0.369	0.76				
H1H15233P2 (antibody, V domains shown) VH: EVQLVESGGGLVQPGGSLRLSCAASGFSFSSYGMNWVRQAPGKGLEWVSAISGRGGNTYSADSVKGRFTISRDNSKNTLFLQMNGLRAEDSAFYYCAKVGTYSSSSPFDYWGQGTLVTVSS VL: not shown	0.0873	1.37	0.46				
H1M15280N (antibody, V domains shown) VH: EVQLLESGGGLVQPGGSLRLSCAASGFTFSSYAMSWVRQAPGKGLEWVSAISGSGSSTYYADSVKGRFTISRDNSKNTLFLQMNSLRAEDTAVYYCAEGGDVDFDYWGQGTLVTVSS VL: not shown				0.111	0.763	97	1.76e-10
H1H15231P2 (antibody, V domains shown) VH: QLQLQESGPGLVKPSETLSLTCTVSGGSISSNTYYWGWIRQPPGKGLEWIGTIYYTGNTYYKSSLKSRVTISVDTSRNQFSLKLTSVTAADTAVYYCARQFADLNYVDYWGQGTLVTVSS VL: not shown	0.102	0.92	0.5				
H2aM15279N (antibody, V domains shown) VH: EVQLLESGGGLVQTGGSLRLSCAASGFTFSNYAMSWVRQAPGKGLEWVSAISDRGGSIYYADSVKGRFTISRDNSKNTKYLQMDSLRAEDTAVYYCAQDRGFGVFDYWGQGTLVTVSS VL: DIQMTQSPSSLSASVGDRVTITCQASQDIGNYLNWFQQRPGKAPNLLIYGASNLETGVPSRFSGGGSGTDFTFTISSLQPEDIATYFCQQYDNLPFTFGPGTKVEIK				0.0939	0.825	97	1.38e-10
